Experimental data as given in PMC5749951, “Mechanistic insights into the active site and allosteric communication pathways in human nonmuscle myosin-2C” (eLife, 2017).

How the values were obtained:
Details in all cases: both partners purified
[1] = target: T1, filamentous actin (F-actin) (UniProt P68135 1-377); test: stopped-flow light scattering + other: stopped-flow pyrene-actin fluorescence; dissociation equilibrium constant calculated as k-DA/k+DA; presence of ADP; salt free stopped-flow buffer
[2] = target: T1, filamentous actin (F-actin); test: stopped-flow light scattering + other: stopped-flow pyrene-actin fluorescence; dissociation equilibrium constant calculated as k-A/k+A; absence of nucleotide (rigor); salt free stopped-flow buffer
[3] = target: T2, pyrene-labeled filamentous actin (UniProt P68135 1-377, pyrene label); test: stopped-flow pyrene-actin fluorescence; dissociation of the myosin motor domain from pyrene-actin; salt free stopped-flow buffer; samples treated with apyrase prior to the assay (rigor conditions)
[4] = target: T1, filamentous actin (F-actin); test: stopped-flow light scattering; myosin motor domain binding to F-actin in the presence of ADP; salt free stopped-flow buffer
[5] = target: T1, filamentous actin (F-actin); test: stopped-flow light scattering; myosin motor domain binding to F-actin in a stopped-flow system; salt free stopped-flow buffer; samples treated with apyrase prior to the assay (rigor conditions)
[6] = target: T2, pyrene-labeled filamentous actin; test: stopped-flow pyrene-actin fluorescence; dissociation of the myosin motor domain from pyrene-actin in the presence of ADP; salt free stopped-flow buffer

Binder	Kd [1] [nM]	Kd [2] [nM]	koff [3] [s⁻¹]	kon [4] [M⁻¹ s⁻¹]	kon [5] [M⁻¹ s⁻¹]	koff [6] [s⁻¹]
human nonmuscle myosin-2C motor domain (amino acids 1-799) directly fused to spectrin repeats 1 and 2 from Dictyostelium alpha-actinin, C-terminal Flag-tag (domain or fragment, nonmuscle myosin-2C heavy chain (gene product of MYH14), human, motor domain, amino acids 1-799; alpha-actinin, Dictyostelium discoideum, spectrin repeats 1 and 2, used as artificial lever arm; Monomeric motor domain construct; also called NM2C; Hs NM2C; source: Sf9/baculovirus system, purified to electrophoretic homogeneity) MAAVTMSVPGRKAPPRPGPVPEAAQPFLFTPRGPSAGGGPGSGTSPQVEWTARRLVWVPSELHGFEAAALRDEGEEEAEVELAESGRRLRLPRDQIQRMNPPKFSKAEDMAELTCLNEASVLHNLRERYYSGLIYTYSGLFCVVINPYKQLPIYTEAIVEMYRGKKRHEVPPHVYAVTEGAYRSMLQDREDQSILCTGESGAGKTENTKKVIQYLAHVASSPKGRKEPGVPGELERQLLQANPILEAFGNAKTVKNDNSSRFGKFIRINFDVAGYIVGANIETYLLEKSRAIRQAKDECSFHIFYQLLGGAGEQLKADLLLEPCSHYRFLTNGPSSSPGQERELFQETLESLRVLGFSHEEIISMLRMVSAVLQFGNIALKRERNTDQATMPDNTAAQKLCRLLGLGVTDFSRALLTPRIKVGRDYVQKAQTKEQADFALEALAKATYERLFRWLVLRLNRALDRSPRQGASFLGILDIAGFEIFQLNSFEQLCINYTNEKLQQLFNHTMFVLEQEEYQREGIPWTFLDFGLDLQPCIDLIERPANPPGLLALLDEECWFPKATDKSFVEKVAQEQGGHPKFQRPRHLRDQADFSVLHYAGKVDYKANEWLMKNMDPLNDNVAALLHQSTDRLTAEIWKDVEGIVGLEQVSSLGDGPPGGRPRRGMFRTVGQLYKESLSRLMATLSNTNPSFVRCIVPNHEKRAGKLEPRLVLDQLRCNGVLEGIRICRQGFPNRILFQEFRQRYEILTPNAIPKGFMDGKQACEKMIQALELDPNLYRVGQSKIFFRAGVLAQLEEEREQTKSDYLKRANELVQWINDKQASLESRDFGDSIESVQSFMNAHKEYKKTEKPPKGQEVSELEAIYNSLQTKLRLIKREPFVAPAGLTPNEIDSTWSALEKAEQEHAEALRIELKRQKKIAVLLQKYNRILKKLENWATTKSVYLGSNETGDSITAVQAKLKNLEAFDGECQSLEGQSNSDLLSILAQLTELNYNGVPELTERKDTFFAQQWTGVKSSAETYKNT	~8	~60	~0.15	530000 ± 10000	2.49e+06 ± 70000	~0.004
human nonmuscle myosin-2C motor domain (amino acids 1-799) R788E fused to spectrin repeats 1 and 2 from Dictyostelium alpha-actinin, C-terminal Flag-tag (domain or fragment, nonmuscle myosin-2C heavy chain (gene product of MYH14), human, motor domain, amino acids 1-799, with R788E; alpha-actinin, Dictyostelium discoideum, spectrin repeats 1 and 2, used as artificial lever arm; Point mutant made by people on the fusion construct m1; also called Hs R788E; R788E (kinetic studies); source: Sf9/baculovirus system, purified to electrophoretic homogeneity) MAAVTMSVPGRKAPPRPGPVPEAAQPFLFTPRGPSAGGGPGSGTSPQVEWTARRLVWVPSELHGFEAAALRDEGEEEAEVELAESGRRLRLPRDQIQRMNPPKFSKAEDMAELTCLNEASVLHNLRERYYSGLIYTYSGLFCVVINPYKQLPIYTEAIVEMYRGKKRHEVPPHVYAVTEGAYRSMLQDREDQSILCTGESGAGKTENTKKVIQYLAHVASSPKGRKEPGVPGELERQLLQANPILEAFGNAKTVKNDNSSRFGKFIRINFDVAGYIVGANIETYLLEKSRAIRQAKDECSFHIFYQLLGGAGEQLKADLLLEPCSHYRFLTNGPSSSPGQERELFQETLESLRVLGFSHEEIISMLRMVSAVLQFGNIALKRERNTDQATMPDNTAAQKLCRLLGLGVTDFSRALLTPRIKVGRDYVQKAQTKEQADFALEALAKATYERLFRWLVLRLNRALDRSPRQGASFLGILDIAGFEIFQLNSFEQLCINYTNEKLQQLFNHTMFVLEQEEYQREGIPWTFLDFGLDLQPCIDLIERPANPPGLLALLDEECWFPKATDKSFVEKVAQEQGGHPKFQRPRHLRDQADFSVLHYAGKVDYKANEWLMKNMDPLNDNVAALLHQSTDRLTAEIWKDVEGIVGLEQVSSLGDGPPGGRPRRGMFRTVGQLYKESLSRLMATLSNTNPSFVRCIVPNHEKRAGKLEPRLVLDQLRCNGVLEGIRICRQGFPNRILFQEFRQRYEILTPNAIPKGFMDGKQACEKMIQALELDPNLYRVGQSKIFFEAGVLAQLEEEREQTKSDYLKRANELVQWINDKQASLESRDFGDSIESVQSFMNAHKEYKKTEKPPKGQEVSELEAIYNSLQTKLRLIKREPFVAPAGLTPNEIDSTWSALEKAEQEHAEALRIELKRQKKIAVLLQKYNRILKKLENWATTKSVYLGSNETGDSITAVQAKLKNLEAFDGECQSLEGQSNSDLLSILAQLTELNYNGVPELTERKDTFFAQQWTGVKSSAETYKNT	~9	~47	~0.031	210000 ± 10000	660000 ± 30000	~0.002
human nonmuscle myosin-2C motor domain (amino acids 1-799) R788K fused to spectrin repeats 1 and 2 from Dictyostelium alpha-actinin, C-terminal Flag-tag (domain or fragment, nonmuscle myosin-2C heavy chain (gene product of MYH14), human, motor domain, amino acids 1-799, with R788K; alpha-actinin, Dictyostelium discoideum, spectrin repeats 1 and 2, used as artificial lever arm; Point mutant made by people on the fusion construct m1; also called Hs R788K; R788K (kinetic studies); source: Sf9/baculovirus system, purified to electrophoretic homogeneity) MAAVTMSVPGRKAPPRPGPVPEAAQPFLFTPRGPSAGGGPGSGTSPQVEWTARRLVWVPSELHGFEAAALRDEGEEEAEVELAESGRRLRLPRDQIQRMNPPKFSKAEDMAELTCLNEASVLHNLRERYYSGLIYTYSGLFCVVINPYKQLPIYTEAIVEMYRGKKRHEVPPHVYAVTEGAYRSMLQDREDQSILCTGESGAGKTENTKKVIQYLAHVASSPKGRKEPGVPGELERQLLQANPILEAFGNAKTVKNDNSSRFGKFIRINFDVAGYIVGANIETYLLEKSRAIRQAKDECSFHIFYQLLGGAGEQLKADLLLEPCSHYRFLTNGPSSSPGQERELFQETLESLRVLGFSHEEIISMLRMVSAVLQFGNIALKRERNTDQATMPDNTAAQKLCRLLGLGVTDFSRALLTPRIKVGRDYVQKAQTKEQADFALEALAKATYERLFRWLVLRLNRALDRSPRQGASFLGILDIAGFEIFQLNSFEQLCINYTNEKLQQLFNHTMFVLEQEEYQREGIPWTFLDFGLDLQPCIDLIERPANPPGLLALLDEECWFPKATDKSFVEKVAQEQGGHPKFQRPRHLRDQADFSVLHYAGKVDYKANEWLMKNMDPLNDNVAALLHQSTDRLTAEIWKDVEGIVGLEQVSSLGDGPPGGRPRRGMFRTVGQLYKESLSRLMATLSNTNPSFVRCIVPNHEKRAGKLEPRLVLDQLRCNGVLEGIRICRQGFPNRILFQEFRQRYEILTPNAIPKGFMDGKQACEKMIQALELDPNLYRVGQSKIFFKAGVLAQLEEEREQTKSDYLKRANELVQWINDKQASLESRDFGDSIESVQSFMNAHKEYKKTEKPPKGQEVSELEAIYNSLQTKLRLIKREPFVAPAGLTPNEIDSTWSALEKAEQEHAEALRIELKRQKKIAVLLQKYNRILKKLENWATTKSVYLGSNETGDSITAVQAKLKNLEAFDGECQSLEGQSNSDLLSILAQLTELNYNGVPELTERKDTFFAQQWTGVKSSAETYKNT	26 to 43	24 to 42	0.04 to 0.07	2.53e+06 ± 50000	1.65e+06 ± 30000	0.067 to 0.11
